Test results: patent US20210095019A1 (I MAB, published 2021)
Read-outs that look alike come from different tables or passages of the source. Values belong to the molecule of their own block, whether it stands above or below them.

What was measured:
[1] = target: primary human AML cells (CD47 on PBMCs of AML patient AML-PB003F) (human) (UniProt Q08722); experiment: flow cytometry on primary AML cells (AML-PB003F); concentration not given
[2] = target: human red blood cells (CD47 on RBC) (human) (UniProt Q08722); experiment: flow cytometry on human RBCs, Donor 2, antibody 10 ug/mL
[3] = target: primary human AML cells (CD47 on PBMCs of AML patient AML-PB003F) (human) (UniProt Q08722)
[4] = target: human red blood cells (CD47 on RBC) (human) (UniProt Q08722); experiment: flow cytometry on human RBCs, Donor 1, antibody 10 ug/mL
[5] = target: human red blood cells (CD47 on RBC) (human) (UniProt Q08722); experiment: flow cytometry on human RBCs, APC secondary antibody
[6] = target: human platelets (CD47 on CD61-positive platelets) (human) (UniProt Q08722); experiment: flow cytometry on human whole blood, gated on CD61+ platelets, antibody 10 ug/mL
[7] = target: Biotinylated CD47 protein (Acrobiosystems) (human) (UniProt Q08722); experiment: ELISA on coated biotinylated CD47 protein (1 ug/mL), anti-human Fc HRP
[8] = target: Recombinant human CD47/mouse Fc fusion protein (Acrobiosystems) (human) (UniProt Q08722); experiment: ELISA on coated CD47/mouse Fc fusion protein (1 ug/ml), anti-human Fc HRP
[9] = target: primary human AML cells (CD47 on PBMCs of AML patient AML-PB003F) (human) (UniProt Q08722); remark: listed apart in the source
[10] = target: Recombinant human CD47-Fc fusion protein (Acrobiosystems) (human) (UniProt Q08722); experiment: blocking ELISA: SIRPa-His (1 ug/mL) binding to coated CD47-Fc, anti-His HRP
[11] = target: human CD47 on Raji cells (human) (UniProt Q08722); experiment: flow cytometry on Raji cells, APC anti-human Fc
[12] = target: T1, Biotinylated CD47 protein (Acrobiosystems) (human, UniProt Q08722 19-139, biotinylated (site not stated)); experiment: ELISA on coated biotinylated CD47 protein (1 ug/mL), anti-human Fc HRP
T1 construct: extracellular domain; Bought reagent; also called monomeric CD47-ECD; biotinylated human CD47-ECD protein
Experimental: After coating of antigen, the wells were blocked with PBS/0.05% Tween (PBST) with 1% BSA for 1 hour at RT. […] Between all incubation steps, the wells of the plate were washed with PBST three times. Fluorescence was measured in a TECAN Spectrafluor plate reader.

AML Binding (percent of cells in the gate) [1]: 27.6%
Binding (percent of RBC in the gate) [2]: 0.018%
phagocytosis: percent of CFSE+ AML cells among CD14+ macrophages [3]: 27%
Binding (percent of RBC in the gate) [4]: 0.079%
Molecule: IgG (antibody)

AML Binding (percent of cells in the gate) [1]: 75.1%
EC50 (read off the curve) [5]: 0.06 µg/mL
Binding (percent of CD61+ platelets in the gate) [6]: 0.41%
EC50 (read off the curve) [7]: 0.03 µg/mL
EC50 (read off the curve) [8]: 0.006 µg/mL
phagocytosis: percent of CFSE+ AML cells among CD14+ macrophages [9]: 36.8%
IC50 (read off the curve) [10]: 0.2 µg/mL
EC50 (read off the curve) [11]: 0.1 µg/mL
Molecule: Reference antibody 2A1 (produced according to the sequence of CC-90002)

Binding (percent of RBC in the gate) [2]: 0.076%
Binding (percent of CD61+ platelets in the gate) [6]: 0.77%
EC50 (read off the curve) [12]: ~0.008 µg/mL
Binding (percent of RBC in the gate) [4]: 0.065%
B1: CD47 antibody 1F8 (antibody, V domains shown)
VH: KVQLVESGGGLVKPGGSLRLSCAASGFTFSNAWMNWVRQAPGKGLEWVGRIKRKTDGETTDYAAPVKGRFSISRDDSKNTLYLQMNSLKTEDTAVYYCAGSNRAFDIWGQGTMVTVSA
VL: DIVMTQSPDSLAVSLGERATINCKSSQSVLYSSNNRNYLAWYQQKPGQPPKLLINQASTRASGVPDRFSGSGSGTEFTLIISSLHAEDVAIYYCQQYYTPPLAFGGGTKLEIK
